Experiment [1] deals with T1, PfACT1 with PfPFN (P. falciparum actin-1/profilin) (Plasmodium falciparum, UniProt Q8I2J4+Q8I4X0).
T1 construct: gene ACT1; PfACT1 from S. frugiperda Sf21 cells (baculovirus)
The experiment is described as follows: actin cosedimentation by ultracentrifugation, SDS-PAGE densitometry. The experiment is classed as biochemical. To be noted: 4 uM PfACT1, 16 uM PfPFN, 25 uM compound, 50 mM KCl, 4 mM MgCl2, 1 mM EGTA, 0.5 mM ATP, 2.5% DMSO, pH 7.5, about 22 C, 16 h, binding site not located. From the text: actin cosedimentation by ultracentrifugation, SDS-PAGE densitometry on PfACT1 with PfPFN (P. falciparum actin-1/profilin) | S-W827, decreased the amount of actin in the pellet further to | All MMV291 analogues, S-MMV291, R-MMV291, S-W936, R-W936, S-W414, and S-W827, decreased the amount of actin

In experiment [2] the target is Plasmodium falciparum actin-1 (P. falciparum) (UniProt Q8I4X0).
Chain of Plasmodium falciparum actin-1 (P. falciparum) (Q8I4X0 whole entry): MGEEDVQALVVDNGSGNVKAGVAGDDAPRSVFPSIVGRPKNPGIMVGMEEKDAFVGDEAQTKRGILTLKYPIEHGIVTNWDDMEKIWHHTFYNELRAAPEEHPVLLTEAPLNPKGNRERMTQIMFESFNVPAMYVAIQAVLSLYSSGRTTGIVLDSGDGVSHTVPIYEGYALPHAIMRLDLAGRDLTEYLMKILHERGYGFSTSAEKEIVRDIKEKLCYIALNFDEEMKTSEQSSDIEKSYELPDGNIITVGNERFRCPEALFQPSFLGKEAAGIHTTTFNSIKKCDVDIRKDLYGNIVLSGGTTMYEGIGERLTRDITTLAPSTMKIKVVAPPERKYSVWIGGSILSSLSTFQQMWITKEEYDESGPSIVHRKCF

T1 sequence (Q8I4X0 whole entry, one chain of several): as the sequence (Q8I4X0 whole entry) above

Regarding `CC(C(=O)N1CCCC1)N1CCN(S(=O)(=O)c2ccc(C(C)(C)C)cc2)CC1` (racemic) [S-MMV291], the “% PfACT1 in pellet at 25 uM” value in experiment [1] was determined as 11 ± 1%.
Take `CC(C(=O)N1CCCC1)N1CCN(S(=O)(=O)c2ccc(C(C)(C)C)cc2)CC1` (racemic) [R-MMV291]: in experiment [1], the “% PfACT1 in pellet at 25 uM” value was 15 ± 2%.

B1: Plasmodium falciparum profilin (natural protein)
chain: MAEEYSWDSYLNDRLLATNQVSGAGLASEEDGVVYACVAQGEESDPNFDKWSLFYKEDYDIEVEDENGTKTTKTINEGQTILVVFNEGYAPDGVWLGGTKYQFINIERDLEFEGYNFDVATCAKLKGGLHLVKVPGGNILVVLYDEEKEQDRGNSKIAALTFAKELAESSQ
In experiment [2], B1 showed a relative amount of PfACT1 (4 uM) in the pellet fraction of the sedimentation assay under polymerizing conditions with PfPFN (16 uM), DMSO of 21%; a relative amount of PfACT1 (4 uM) in the pellet fraction of the sedimentation assay with PfPFN (16 uM) and R-MMV291 (25 uM) of 15%; a relative amount of PfACT1 (4 uM) in the pellet fraction of the sedimentation assay with PfPFN (16 uM) and R-W936 (25 uM) of 10%; a relative amount of PfACT1 (4 uM) in the pellet fraction of the sedimentation assay with PfPFN (16 uM) and S-MMV291 (25 uM) of 11%. In addition, in experiment [2], the relative amount of PfACT1 (4 uM) in the pellet fraction of the sedimentation assay with PfPFN (16 uM) and S-W414 (25 uM) turned out to be 9%; the relative amount of PfACT1 (4 uM) in the pellet fraction of the sedimentation assay with PfPFN (16 uM) and S-W827 (25 uM) turned out to be 5%; the relative amount of PfACT1 (4 uM) in the pellet fraction of the sedimentation assay with PfPFN (16 uM) and S-W936 (25 uM) is 8%.
